These results are taken from patent publication US20140302043A1.

What all share (assay): cell-based or functional assay
Test [1] has as its target hemagglutinin (HA) of H1N1 virus strain A/Solomon islands/03/2006, on virus (influenza A virus H1N1, A/Solomon Islands/03/2006).
The target of test [2] is hemagglutinin (HA) of H1N1 virus strain A/Kawasaki/6/1986 (influenza A virus H1N1, A/Kawasaki/6/1986).
Test [3] has as its target hemagglutinin (HA) of H1N1 virus strain A/Florida/2/1993 (influenza A virus H1N1, A/Florida/2/1993).
Test [4] addresses hemagglutinin (HA) of H1N1 virus strain A/Canada/59/2004 (influenza A virus H1N1, A/Canada/59/2004).
Test [5] concerns the target hemagglutinin (HA) of H1N1 virus strain A/Fujian/156/2000 (influenza A virus H1N1, A/Fujian/156/2000).
The target of test [6] is hemagglutinin (HA) of H1N1 virus strain A/Moscow/13/1998 (influenza A virus H1N1, A/Moscow/13/1998).
The target in test [7] is hemagglutinin (HA) of H1N1 virus strain A/Shengzhen/227/1995 (influenza A virus H1N1, A/Shengzhen/227/1995).
Test [8] addresses hemagglutinin (HA) of H1N1 virus strain A/Bangkok/163/2000 (influenza A virus H1N1, A/Bangkok/163/2000).
Test [9] concerns the target hemagglutinin (HA) of H1N1 virus strain A/Ostrava/801/1998 (influenza A virus H1N1, A/Ostrava/801/1998).
The target of test [10] is hemagglutinin (HA) of H1N1 virus strain A/Beijing/262/1995 (influenza A virus H1N1, A/Beijing/262/1995).
The target in test [11] is hemagglutinin (HA) of H1N1 virus strain A/USSR/90/1977 (influenza A virus H1N1, A/USSR/90/1977).
Test [12] concerns the target hemagglutinin (HA) of H1N1 virus strain A/Neimenggu/52/2002 (influenza A virus H1N1, A/Neimenggu/52/2002).
The target of test [13] is hemagglutinin (HA) of H1N1 virus strain A/Shanghai/2/1997 (influenza A virus H1N1, A/Shanghai/2/1997).
For test [14], the target named is hemagglutinin (HA) of H1N1 virus strain A/New Caledonia/22/1999 (influenza A virus H1N1, A/New Caledonia/22/1999).
Test [15] deals with hemagglutinin (HA) of H1N1 virus strain A/Auckland/65/2001 (influenza A virus H1N1, A/Auckland/65/2001).
The target of test [16] is hemagglutinin (HA) of H1N1 virus strain A/Chile/8885/2001 (influenza A virus H1N1, A/Chile/8885/2001).
Test [17] deals with hemagglutinin (HA) of H1N1 virus strain A/Brisbane/59/2007 (influenza A virus H1N1, A/Brisbane/59/2007).
Test [18] concerns the target hemagglutinin (HA) of H1N1 virus strain A/Johannesburg/159/1997 (influenza A virus H1N1, A/Johannesburg/159/1997).

Regarding “mAb CH65, recombinant intact IgG1 (antibody)”, the mAb minimum effective concentration (EC99, microneutralization on MDCK cells) is 0.024 µg/mL in test [1]; 0.098 µg/mL in test [2]; 0.012 µg/mL in test [3]; 0.098 µg/mL in test [4]; 0.488 µg/mL in [5]; 0.012 µg/mL in test [6]. Moreover, the mAb minimum effective concentration (EC99, microneutralization on MDCK cells) was found to be 0.012 µg/mL in test [7]; 0.195 µg/mL in [8]; 12.5 µg/mL in test [9]; 0.098 µg/mL in test [10]; 100 µg/mL in test [11]; 0.098 µg/mL in test [12]. In addition, the mAb minimum effective concentration (EC99, microneutralization on MDCK cells) was determined as 0.195 µg/mL in [13]; 0.391 µg/mL in [14]; 0.195 µg/mL in test [15]; 0.195 µg/mL in [16]; 0.098 µg/mL in [17]; 0.098 µg/mL in [18].
Regarding mAb CH67 (antibody), the mAb minimum effective concentration (EC99, microneutralization on MDCK cells) was 0.098 µg/mL in test [1]; 0.39 µg/mL in test [2]; 0.012 µg/mL in test [3]; 0.098 µg/mL in test [4]; 0.049 µg/mL in test [5]; 0.012 µg/mL in test [6]. Besides, the mAb minimum effective concentration (EC99, microneutralization on MDCK cells) in test [7] stood at 0.024 µg/mL; in test [8], 0.098 µg/mL; in test [10], 0.098 µg/mL; in test [11], 25 µg/mL; in [12], 0.098 µg/mL; in [13], 0.195 µg/mL. For the same substance, the mAb minimum effective concentration (EC99, microneutralization on MDCK cells) in test [14] stood at 0.195 µg/mL; in [15], 0.098 µg/mL; in [16], 0.098 µg/mL; in [17] it was 0.98 µg/mL; in [18], 0.39 µg/mL.
